Measurements reported in the Immune Epitope Database (IEDB).
Each block holds one sequence with its values, some of them ahead of it.

What was measured:
HLA-B*15:01 [1] = assay: IEDB peptide-MHC binding, purified MHC/competitive/fluorescence; ≥ and ≤ were set here for values at or beyond the usual limits of such assays
HLA-A*11:01 [2] = assay: as above
HLA-A*03:01 [3] = assay: as above
HLA-A*02:01 [4] = assay: as above
HLA-A*24:02 = assay: as above
HLA-A*02:01 [5] = assay: IEDB peptide-MHC binding, purified MHC/competitive/fluorescence; filed as Kd, often an IC50 or EC50 that approximates it; ≥ and ≤ were set here for values at or beyond the usual limits of such assays
HLA-B*57:01 [6] = assay: as above
HLA-B*18:01 = assay: as above
HLA-B*39:01 [7] = assay: as above
HLA-A*69:01 [8] = assay: as above
HLA-B*27:03 = assay: as above
HLA-A*02:19 = assay: IEDB peptide-MHC binding, purified MHC/direct/fluorescence; filed as Kd, often an IC50 or EC50 that approximates it; ≥ and ≤ were set here for values at or beyond the usual limits of such assays
HLA-A*68:02 = assay: as above
HLA-A*02:11 = assay: as above
HLA-A*02:03 [9] = assay: as above
HLA-B*15:01 [10] = assay: as above; details: source organism: Reston ebolavirus - Reston
HLA-A*02:16 = assay: as above
HLA-A*02:12 = assay: as above
HLA-A*03:01 [11] = assay: as above; details: source organism: Zaire ebolavirus
HLA-B*07:02 = assay: as above; details: source organism: Vibrio vulnificus
HLA-A*02:01 [12] = assay: as above; details: source organism: Vibrio vulnificus
HLA-B*15:09 = assay: as above
HLA-A*31:01 = assay: as above; details: source organism: Vibrio vulnificus
HLA-B*57:01 [13] = assay: as above; details: source organism: Vibrio vulnificus
HLA-B*40:01 = assay: as above
HLA-A*01:01 = assay: as above; details: source organism: Vibrio vulnificus
HLA-A*11:01 [14] = assay: as above
HLA-B*15:17 [15] = assay: as above; details: source organism: Vibrio vulnificus
HLA-B*58:01 = assay: as above; details: source organism: Vibrio vulnificus
HLA-B*48:01 = assay: as above; details: source organism: Vibrio vulnificus
HLA-B*39:01 [16] = assay: as above; details: source organism: Vibrio vulnificus CMCP6
HLA-A*69:01 [17] = assay: as above; details: source organism: Vibrio vulnificus
HLA-B*27:05 = assay: as above; details: source organism: Vibrio vulnificus
HLA-B*44:02 = assay: as above; details: source organism: Vibrio vulnificus
HLA-A*26:01 [18] = assay: as above; details: source organism: Vibrio vulnificus CMCP6
HLA-B*15:42 = assay: IEDB peptide-MHC binding, purified MHC/competitive/fluorescence; filed as Kd, often an IC50 or EC50 that approximates it; ≥ and ≤ were set here for values at or beyond the usual limits of such assays; details: source organism: Zaire ebolavirus
HLA-B*51:01 = assay: as above
HLA-B*83:01 = assay: as above; details: source organism: Zaire ebolavirus
HLA-B*15:01 [19] = assay: as above; details: source organism: Zaire ebolavirus
HLA-B*46:01 = assay: as above
HLA-B*45:06 = assay: as above; details: source organism: Zaire ebolavirus
HLA-A*26:01 [20] = assay: as above
HLA-A*24:03 = assay: IEDB peptide-MHC binding, purified MHC/direct/fluorescence; filed as Kd, often an IC50 or EC50 that approximates it; ≥ and ≤ were set here for values at or beyond the usual limits of such assays; details: source organism: Zaire ebolavirus
HLA-B*15:17 [21] = assay: IEDB peptide-MHC binding, purified MHC/competitive/fluorescence; filed as Kd, often an IC50 or EC50 that approximates it; ≥ and ≤ were set here for values at or beyond the usual limits of such assays; details: source organism: Bacillus anthracis str. A0488
HLA-A*02:03 [22] = assay: as above; details: source organism: Homo sapiens
[23] = source organism: Sudan ebolavirus
[24] = source organism: Zaire ebolavirus
[25] = source organism: Vibrio vulnificus
[26] = source organism: Vaccinia virus
[27] = source organism: Bacillus anthracis str. A0488
[28] = source organism: Bacillus cereus G9842

Sequence: GFRSGVPPK
IC50 (HLA-B*15:01 [1]; [23]): ≥ 92.3 µM | IC50 (HLA-A*11:01 [2]; [23]): 3.21 µM | IC50 (HLA-A*03:01 [3]; [23]): 3.79 µM

Sequence: GLFPQLSAI
IC50 (HLA-A*02:01 [4]; [24]): 0.431 µM | IC50 (HLA-B*15:01 [1]; [24]): 10.3 µM | IC50 (HLA-A*24:02; [24]): 8.03 µM

Sequence: HLPGFGTAF
Kd (HLA-A*02:01 [5]; [24]): ≥ 20 µM | Kd (HLA-B*57:01 [6]; [24]): ≥ 20 µM | Kd (HLA-B*18:01; [24]): ≥ 20 µM | Kd (HLA-B*39:01 [7]; [24]): ≥ 20 µM | Kd (HLA-A*69:01 [8]; [24]): ≥ 20 µM | Kd (HLA-B*27:03; [24]): ≥ 20 µM | Kd (HLA-A*02:19; [24]): ≥ 20 µM | Kd (HLA-A*68:02; [24]): ≥ 20 µM | Kd (HLA-A*02:11; [24]): ≥ 20 µM | Kd (HLA-A*02:03 [9]; [24]): ≥ 20 µM | Kd (HLA-B*15:01 [10]): 0.072 µM | Kd (HLA-A*02:16; [24]): ≥ 20 µM | Kd (HLA-A*02:12; [24]): ≥ 20 µM | Kd (HLA-A*03:01 [11]): ≥ 20 µM

Sequence: IEFIEVVRL
Kd (HLA-B*07:02): ≥ 20 µM | Kd (HLA-A*68:02; [25]): ≥ 20 µM | Kd (HLA-A*02:01 [12]): ≥ 20 µM | Kd (HLA-B*15:09; source organism: Vibrio vulnificus CMCP6): ≥ 20 µM | Kd (HLA-A*31:01): ≥ 20 µM | Kd (HLA-B*57:01 [13]): ≥ 20 µM | Kd (HLA-B*40:01; [25]): 0.0377 µM | Kd (HLA-A*01:01): ≥ 20 µM | Kd (HLA-A*11:01 [14]; [25]): ≥ 20 µM | Kd (HLA-B*15:17 [15]): ≥ 20 µM | Kd (HLA-B*58:01): ≥ 20 µM | Kd (HLA-B*48:01): ≥ 20 µM | Kd (HLA-B*39:01 [16]): ≥ 20 µM | Kd (HLA-A*69:01 [17]): ≥ 20 µM | Kd (HLA-B*27:05): ≥ 20 µM | Kd (HLA-B*44:02): ≥ 20 µM | Kd (HLA-A*26:01 [18]): ≥ 20 µM

Sequence: KINQIIHDF
IC50 (HLA-A*02:01 [4]; [23]): ≥ 78.6 µM | IC50 (HLA-B*15:01 [1]; [23]): 27.2 µM | IC50 (HLA-A*24:02; [23]): 0.969 µM

Sequence: LEARVNLSV
Kd (HLA-A*02:01 [5]; [24]): ≥ 20 µM | Kd (HLA-B*15:42): ≥ 5 µM | Kd (HLA-B*57:01 [6]; [24]): ≥ 20 µM | Kd (HLA-B*51:01; [24]): ≥ 20 µM | Kd (HLA-B*18:01; [24]): ≥ 20 µM | Kd (HLA-B*83:01): ≥ 5 µM | Kd (HLA-B*15:01 [19]): ≥ 20 µM | Kd (HLA-B*39:01 [7]; [24]): ≥ 20 µM | Kd (HLA-B*46:01; [24]): ≥ 20 µM | Kd (HLA-A*69:01 [8]; [24]): ≥ 20 µM | Kd (HLA-B*45:06): ≥ 5 µM | Kd (HLA-B*27:03; [24]): ≥ 20 µM | Kd (HLA-A*26:01 [20]; [24]): ≥ 20 µM | Kd (HLA-A*02:19; [24]): ≥ 20 µM | Kd (HLA-A*68:02; [24]): ≥ 20 µM | Kd (HLA-A*24:03): ≥ 20 µM | Kd (HLA-A*02:03 [9]; [24]): ≥ 20 µM | Kd (HLA-B*40:01; source organism: Sudan ebolavirus - Maleo (1979)): 2.34 µM | Kd (HLA-A*02:12; [24]): ≥ 20 µM | Kd (HLA-A*03:01 [11]): ≥ 20 µM

Sequence: LLFGIKCIK
IC50 (HLA-A*02:01 [4]; [26]): 0.914 µM | IC50 (HLA-B*15:01 [1]; [26]): ≥ 229 µM | IC50 (HLA-A*11:01 [2]; [26]): 0.734 µM | IC50 (HLA-A*03:01 [3]; [26]): 0.77 µM

Sequence: MFKNFPFFK
Kd (HLA-A*02:01 [5]; [27]): ≥ 20 µM | Kd (HLA-B*57:01 [6]; [27]): ≥ 20 µM | Kd (HLA-B*51:01; [27]): ≥ 20 µM | Kd (HLA-B*18:01; [27]): ≥ 20 µM | Kd (HLA-B*15:17 [21]): ≥ 20 µM | Kd (HLA-B*39:01 [7]; [27]): ≥ 20 µM | Kd (HLA-B*46:01; [27]): ≥ 20 µM | Kd (HLA-B*27:03; [27]): ≥ 20 µM | Kd (HLA-A*26:01 [20]; [27]): ≥ 20 µM | Kd (HLA-A*02:19; [28]): ≥ 20 µM | Kd (HLA-A*02:11; [28]): ≥ 20 µM | Kd (HLA-A*02:03 [9]; [28]): ≥ 20 µM | Kd (HLA-A*02:16; [28]): ≥ 20 µM | Kd (HLA-A*02:12; [28]): ≥ 20 µM | Kd (HLA-A*11:01 [14]; [28]): ≤ 0.001 µM

Sequence: SRAGISVVL
Kd (HLA-B*39:01 [7]; source organism: Serratia marcescens): 0.0047 µM | Kd (HLA-B*15:09; source organism: Salmonella enterica subsp. enterica serovar Typhimurium str. LT2): 0.207 µM

Kd (HLA-A*02:01 [5]; source organism: Homo sapiens): 0.013 µM | Kd (HLA-A*02:03 [22]): 2.14 µM | Kd (HLA-A*69:01 [8]; source organism: Homo sapiens): ≥ 20 µM
Sequence: YQGSYGFRL
